The record followed here is publication doi:10.1101/403360.

Assay [1] has as its target wild type GluN2A C-terminus peptide (…). The experiment in a line: SPR. A general note: Surface plasmon resonance follows binding to a sensor surface in real time, without labels.
The target of assay [2] is wild type GluN2B C-terminus peptide (…). The assay is described as follows: SPR.

By Kd is commonly meant a measure of binding affinity in units of concentration. Low readings indicate higher affinity, high ones lower affinity.

In the case of “isolated FRMPD2 PDZ2 domain (from UniProt A0A140LI67 934-1027) (domain or fragment)”, the Kd came to 310 nM in assay [1] and 250 µM in assay [2].
